Source: the supplement of paper PMC12067230
± gives the uncertainty stated by the source.

B1: E-1-A; numbered along this chain (parent)
chain: EASNCFAIRHFENKFAVETLICFNLFLNSQEKHY

Variants of: B1
Assay: amyloid nucleation score relative to WT ADan (yeast Sup35 reporter selection) (log enrichment difference); higher = more amyloid nucleation
Method: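 Deep mutational scan of the ADan peptide fused to the Sup35 nucleation domain (SupN) in S. cerevisiae [psi-pin-], covering all single amino-acid substitutions and stop truncations (truncations = sequence up to the stop). After 24 h Cu2+ induction, cells were selected on -ADE-URA plates for 7 d at 30 °C. The nucleation score is log enrichment (output/input, deep sequencing) minus that of WT ADan, as the error-weighted mean of 3 biological replicates (DiMSum).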

Question: Which amyloid nucleation score does the source give for AASNCFAIRHFENKFAVETLICFNLFLNSQEKHY [E1A] here?
Answer: The amyloid nucleation score was 0.401 ± 0.18.

Question: Which amyloid nucleation score does the source give for CASNCFAIRHFENKFAVETLICFNLFLNSQEKHY [E1C] here?
Answer: Its amyloid nucleation score is 0.179 ± 0.21.

Question: For DASNCFAIRHFENKFAVETLICFNLFLNSQEKHY [E1D], which amyloid nucleation score is on record?
Answer: Its amyloid nucleation score is -0.0528 ± 0.21.

Question: For FASNCFAIRHFENKFAVETLICFNLFLNSQEKHY [E1F], which amyloid nucleation score is on record?
Answer: The amyloid nucleation score was -1.27 ± 0.26.

Question: With GASNCFAIRHFENKFAVETLICFNLFLNSQEKHY [E1G] as the variant, how does the amyloid nucleation score read?
Answer: Its amyloid nucleation score is 0.0173 ± 0.14.

Question: For HASNCFAIRHFENKFAVETLICFNLFLNSQEKHY [E1H], which amyloid nucleation score is on record?
Answer: Its amyloid nucleation score is -0.752 ± 0.34.

Question: With IASNCFAIRHFENKFAVETLICFNLFLNSQEKHY [E1I] as the variant, how does the amyloid nucleation score read?
Answer: Its amyloid nucleation score is -1.07 ± 0.3.

Question: For KASNCFAIRHFENKFAVETLICFNLFLNSQEKHY [E1K], which amyloid nucleation score is on record?
Answer: The amyloid nucleation score was -1.2 ± 0.24.

Question: For LASNCFAIRHFENKFAVETLICFNLFLNSQEKHY [E1L], which amyloid nucleation score is on record?
Answer: The amyloid nucleation score was -1.03 ± 0.17.

Question: With MASNCFAIRHFENKFAVETLICFNLFLNSQEKHY [E1M] as the variant, how does the amyloid nucleation score read?
Answer: Its amyloid nucleation score is -0.555 ± 0.27.

Question: Which amyloid nucleation score does the source give for NASNCFAIRHFENKFAVETLICFNLFLNSQEKHY [E1N] here?
Answer: Its amyloid nucleation score is 0.0879 ± 0.31.

Question: Which amyloid nucleation score does the source give for PASNCFAIRHFENKFAVETLICFNLFLNSQEKHY [E1P] here?
Answer: Its amyloid nucleation score is 0.117 ± 0.38.

Question: For QASNCFAIRHFENKFAVETLICFNLFLNSQEKHY [E1Q], which amyloid nucleation score is on record?
Answer: Its amyloid nucleation score is -0.0134 ± 0.25.

Question: For RASNCFAIRHFENKFAVETLICFNLFLNSQEKHY [E1R], which amyloid nucleation score is on record?
Answer: The amyloid nucleation score was -1.76 ± 0.21.

Question: Which amyloid nucleation score does the source give for SASNCFAIRHFENKFAVETLICFNLFLNSQEKHY [E1S] here?
Answer: The amyloid nucleation score was -0.005 ± 0.23.

Question: With TASNCFAIRHFENKFAVETLICFNLFLNSQEKHY [E1T] as the variant, how does the amyloid nucleation score read?
Answer: The amyloid nucleation score was -1.09 ± 0.24.

Question: For VASNCFAIRHFENKFAVETLICFNLFLNSQEKHY [E1V], which amyloid nucleation score is on record?
Answer: The amyloid nucleation score was 0.419 ± 0.15.

Question: For WASNCFAIRHFENKFAVETLICFNLFLNSQEKHY [E1W], which amyloid nucleation score is on record?
Answer: Its amyloid nucleation score is 0.00448 ± 0.2.

Question: Which amyloid nucleation score does the source give for YASNCFAIRHFENKFAVETLICFNLFLNSQEKHY [E1Y] here?
Answer: The amyloid nucleation score was 0.135 ± 0.22.

Question: Which amyloid nucleation score does the source give for ECSNCFAIRHFENKFAVETLICFNLFLNSQEKHY [A2C] here?
Answer: Its amyloid nucleation score is 0.581 ± 0.19.

Question: Which amyloid nucleation score does the source give for EDSNCFAIRHFENKFAVETLICFNLFLNSQEKHY [A2D] here?
Answer: The amyloid nucleation score was 0.518 ± 0.22.

Question: Which amyloid nucleation score does the source give for EESNCFAIRHFENKFAVETLICFNLFLNSQEKHY [A2E] here?
Answer: Its amyloid nucleation score is 0.464 ± 0.2.

Question: For EFSNCFAIRHFENKFAVETLICFNLFLNSQEKHY [A2F], which amyloid nucleation score is on record?
Answer: Its amyloid nucleation score is -1.28 ± 0.2.

Question: For EGSNCFAIRHFENKFAVETLICFNLFLNSQEKHY [A2G], which amyloid nucleation score is on record?
Answer: The amyloid nucleation score was 0.0812 ± 0.13.

Question: Which amyloid nucleation score does the source give for EHSNCFAIRHFENKFAVETLICFNLFLNSQEKHY [A2H] here?
Answer: The amyloid nucleation score was 0.353 ± 0.26.

Question: With EISNCFAIRHFENKFAVETLICFNLFLNSQEKHY [A2I] as the variant, how does the amyloid nucleation score read?
Answer: The amyloid nucleation score was -1.13 ± 0.23.

Question: For EKSNCFAIRHFENKFAVETLICFNLFLNSQEKHY [A2K], which amyloid nucleation score is on record?
Answer: Its amyloid nucleation score is -0.117 ± 0.23.

Question: With ELSNCFAIRHFENKFAVETLICFNLFLNSQEKHY [A2L] as the variant, how does the amyloid nucleation score read?
Answer: Its amyloid nucleation score is -1.51 ± 0.2.

Question: With EMSNCFAIRHFENKFAVETLICFNLFLNSQEKHY [A2M] as the variant, how does the amyloid nucleation score read?
Answer: The amyloid nucleation score was -1.1 ± 0.24.

Question: Which amyloid nucleation score does the source give for ENSNCFAIRHFENKFAVETLICFNLFLNSQEKHY [A2N] here?
Answer: The amyloid nucleation score was 0.137 ± 0.21.

Question: Which amyloid nucleation score does the source give for EPSNCFAIRHFENKFAVETLICFNLFLNSQEKHY [A2P] here?
Answer: Its amyloid nucleation score is 0.0538 ± 0.21.

Question: Which amyloid nucleation score does the source give for EQSNCFAIRHFENKFAVETLICFNLFLNSQEKHY [A2Q] here?
Answer: Its amyloid nucleation score is 0.125 ± 0.26.

Question: With ERSNCFAIRHFENKFAVETLICFNLFLNSQEKHY [A2R] as the variant, how does the amyloid nucleation score read?
Answer: The amyloid nucleation score was -0.078 ± 0.14.

Question: With ESSNCFAIRHFENKFAVETLICFNLFLNSQEKHY [A2S] as the variant, how does the amyloid nucleation score read?
Answer: The amyloid nucleation score was 0.208 ± 0.12.

Question: For ETSNCFAIRHFENKFAVETLICFNLFLNSQEKHY [A2T], which amyloid nucleation score is on record?
Answer: Its amyloid nucleation score is -0.12 ± 0.14.

Question: With EVSNCFAIRHFENKFAVETLICFNLFLNSQEKHY [A2V] as the variant, how does the amyloid nucleation score read?
Answer: Its amyloid nucleation score is -1.22 ± 0.19.

Question: Which amyloid nucleation score does the source give for EWSNCFAIRHFENKFAVETLICFNLFLNSQEKHY [A2W] here?
Answer: The amyloid nucleation score was -0.655 ± 0.21.

Question: For EYSNCFAIRHFENKFAVETLICFNLFLNSQEKHY [A2Y], which amyloid nucleation score is on record?
Answer: The amyloid nucleation score was -0.52 ± 0.22.

Question: Which amyloid nucleation score does the source give for EAANCFAIRHFENKFAVETLICFNLFLNSQEKHY [S3A] here?
Answer: The amyloid nucleation score was 0.258 ± 0.18.

Question: With EACNCFAIRHFENKFAVETLICFNLFLNSQEKHY [S3C] as the variant, how does the amyloid nucleation score read?
Answer: Its amyloid nucleation score is 0.601 ± 0.2.

Question: Which amyloid nucleation score does the source give for EADNCFAIRHFENKFAVETLICFNLFLNSQEKHY [S3D] here?
Answer: The amyloid nucleation score was 0.481 ± 0.22.

Question: For EAENCFAIRHFENKFAVETLICFNLFLNSQEKHY [S3E], which amyloid nucleation score is on record?
Answer: The amyloid nucleation score was 0.224 ± 0.23.

Question: Which amyloid nucleation score does the source give for EAFNCFAIRHFENKFAVETLICFNLFLNSQEKHY [S3F] here?
Answer: Its amyloid nucleation score is -0.00261 ± 0.19.

Question: With EAGNCFAIRHFENKFAVETLICFNLFLNSQEKHY [S3G] as the variant, how does the amyloid nucleation score read?
Answer: The amyloid nucleation score was 0.112 ± 0.14.

Question: With EAHNCFAIRHFENKFAVETLICFNLFLNSQEKHY [S3H] as the variant, how does the amyloid nucleation score read?
Answer: The amyloid nucleation score was -0.359 ± 0.39.

Question: With EAINCFAIRHFENKFAVETLICFNLFLNSQEKHY [S3I] as the variant, how does the amyloid nucleation score read?
Answer: The amyloid nucleation score was -1.1 ± 0.23.

Question: With EAKNCFAIRHFENKFAVETLICFNLFLNSQEKHY [S3K] as the variant, how does the amyloid nucleation score read?
Answer: Its amyloid nucleation score is 0.21 ± 0.27.

Question: Which amyloid nucleation score does the source give for EALNCFAIRHFENKFAVETLICFNLFLNSQEKHY [S3L] here?
Answer: Its amyloid nucleation score is -0.738 ± 0.16.

Question: With EAMNCFAIRHFENKFAVETLICFNLFLNSQEKHY [S3M] as the variant, how does the amyloid nucleation score read?
Answer: Its amyloid nucleation score is 0.163 ± 0.25.

Question: Which amyloid nucleation score does the source give for EANNCFAIRHFENKFAVETLICFNLFLNSQEKHY [S3N] here?
Answer: Its amyloid nucleation score is 0.0448 ± 0.23.

Question: For EAPNCFAIRHFENKFAVETLICFNLFLNSQEKHY [S3P], which amyloid nucleation score is on record?
Answer: Its amyloid nucleation score is 0.338 ± 0.36.

Question: For EAQNCFAIRHFENKFAVETLICFNLFLNSQEKHY [S3Q], which amyloid nucleation score is on record?
Answer: Its amyloid nucleation score is -0.501 ± 0.37.

Question: For EARNCFAIRHFENKFAVETLICFNLFLNSQEKHY [S3R], which amyloid nucleation score is on record?
Answer: Its amyloid nucleation score is -0.46 ± 0.17.

Question: Which amyloid nucleation score does the source give for EATNCFAIRHFENKFAVETLICFNLFLNSQEKHY [S3T] here?
Answer: The amyloid nucleation score was -0.349 ± 0.21.

Question: Which amyloid nucleation score does the source give for EAVNCFAIRHFENKFAVETLICFNLFLNSQEKHY [S3V] here?
Answer: The amyloid nucleation score was -0.392 ± 0.16.

Question: Which amyloid nucleation score does the source give for EAWNCFAIRHFENKFAVETLICFNLFLNSQEKHY [S3W] here?
Answer: Its amyloid nucleation score is -0.398 ± 0.25.

Question: With EAYNCFAIRHFENKFAVETLICFNLFLNSQEKHY [S3Y] as the variant, how does the amyloid nucleation score read?
Answer: The amyloid nucleation score was 0.296 ± 0.25.

Question: With EASACFAIRHFENKFAVETLICFNLFLNSQEKHY [N4A] as the variant, how does the amyloid nucleation score read?
Answer: The amyloid nucleation score was -3.1 ± 0.4.

Question: With EASCCFAIRHFENKFAVETLICFNLFLNSQEKHY [N4C] as the variant, how does the amyloid nucleation score read?
Answer: The amyloid nucleation score was -2.58 ± 0.3.

Question: For EASDCFAIRHFENKFAVETLICFNLFLNSQEKHY [N4D], which amyloid nucleation score is on record?
Answer: The amyloid nucleation score was 0.376 ± 0.17.

Question: With EASECFAIRHFENKFAVETLICFNLFLNSQEKHY [N4E] as the variant, how does the amyloid nucleation score read?
Answer: The amyloid nucleation score was 0.296 ± 0.18.

Question: With EASFCFAIRHFENKFAVETLICFNLFLNSQEKHY [N4F] as the variant, how does the amyloid nucleation score read?
Answer: Its amyloid nucleation score is -4.13 ± 0.42.

Question: For EASGCFAIRHFENKFAVETLICFNLFLNSQEKHY [N4G], which amyloid nucleation score is on record?
Answer: Its amyloid nucleation score is -2.24 ± 0.15.

Question: For EASHCFAIRHFENKFAVETLICFNLFLNSQEKHY [N4H], which amyloid nucleation score is on record?
Answer: Its amyloid nucleation score is -0.547 ± 0.26.

Question: With EASICFAIRHFENKFAVETLICFNLFLNSQEKHY [N4I] as the variant, how does the amyloid nucleation score read?
Answer: Its amyloid nucleation score is -3.04 ± 0.28.

Question: With EASKCFAIRHFENKFAVETLICFNLFLNSQEKHY [N4K] as the variant, how does the amyloid nucleation score read?
Answer: The amyloid nucleation score was 0.0897 ± 0.19.

Question: Which amyloid nucleation score does the source give for EASLCFAIRHFENKFAVETLICFNLFLNSQEKHY [N4L] here?
Answer: Its amyloid nucleation score is -4.8 ± 0.57.

Question: For EASMCFAIRHFENKFAVETLICFNLFLNSQEKHY [N4M], which amyloid nucleation score is on record?
Answer: Its amyloid nucleation score is -4.92 ± 0.93.

Question: For EASPCFAIRHFENKFAVETLICFNLFLNSQEKHY [N4P], which amyloid nucleation score is on record?
Answer: Its amyloid nucleation score is -0.352 ± 0.18.

Question: Which amyloid nucleation score does the source give for EASQCFAIRHFENKFAVETLICFNLFLNSQEKHY [N4Q] here?
Answer: The amyloid nucleation score was -0.267 ± 0.22.

Question: Which amyloid nucleation score does the source give for EASRCFAIRHFENKFAVETLICFNLFLNSQEKHY [N4R] here?
Answer: The amyloid nucleation score was -0.0776 ± 0.12.

Question: With EASSCFAIRHFENKFAVETLICFNLFLNSQEKHY [N4S] as the variant, how does the amyloid nucleation score read?
Answer: The amyloid nucleation score was -0.879 ± 0.12.
